Measured values reported in paper PMC3327659.

Key:
[1] = biological target: T1, DR0865 (Fur homologue) (Deinococcus radiodurans R1?) (UniProt Q9RW04); test: EMSA; settings: 30 mM Tris-HCl pH 6.8, 50 mM NaCl, 5% glycerol, 50 ug/mL calf thymus DNA, 50 ug/mL BSA, Mn2+ or Fe2+ (varied), 10 nM FITC-DNA, 30 min at 4 C; 5% native PAGE
T1 sequence: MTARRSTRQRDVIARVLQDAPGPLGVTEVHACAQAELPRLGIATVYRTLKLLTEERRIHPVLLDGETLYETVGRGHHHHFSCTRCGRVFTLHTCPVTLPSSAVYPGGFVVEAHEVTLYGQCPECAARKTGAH

[2] = biological target: T2, DR2539 (Deinococcus radiodurans R1 (ATCC13939)) (UniProt Q9RRF3); test: EMSA; settings: 30 mM Tris-HCl pH 6.8, 50 mM NaCl, 5% glycerol, 50 ug/mL calf thymus DNA, 50 ug/mL BSA, Mn2+ or Fe2+ (varied), 10 nM FITC-DNA, 30 min at 4 C; 5% native PAGE
T2 sequence: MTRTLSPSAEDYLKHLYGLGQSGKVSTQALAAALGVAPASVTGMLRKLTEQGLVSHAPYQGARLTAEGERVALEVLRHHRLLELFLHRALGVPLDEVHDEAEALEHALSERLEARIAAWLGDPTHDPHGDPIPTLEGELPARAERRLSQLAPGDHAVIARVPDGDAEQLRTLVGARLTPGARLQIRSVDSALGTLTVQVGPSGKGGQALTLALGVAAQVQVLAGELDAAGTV

Sequence	binding [1]	binding [2]
CAGGCTGGGAGAACGGGAATCCATGGCCTTTATTTTAGGCGCGACTAAAATAGTTGTCCAACGGCGTGGGCTTGAGTTCGTCTTAAAGGCCGACTTTTTTGTGAAAAATGCCTCTTTCCCAAGATCCAGTCAGATTCCGTCACGCTGGGTCATCTGGTTTTCAGGGTGCTGTCACATATTTGCTAGAGGCTC (double strand) [p1709b (mntH promoter with inverted repeat)]	no binding	binds
GAGCCTCTAGCAAATATGTGACAGCACCCTGAAAACCAGATGACCCAGCGTGACGGAATCTGACTGGATCTTGGGAAAGAGGCATTTTTCACAAAAAAGTCGGCCTTTAAGACGAACTCAAGCCCACGCCGTTGGACA (double strand) [p1709a (mntH promoter lacking inverted repeat)]		no binding
